From US20210388087A1
Where a chain is given by its changes, count along the chain named. In names and notes the source's numbering stands.

Target: Human CD137 ECD (human)
Assay: SPR, vs parent H183/L072

Chain of Human CD137 ECD (human) (chain, as listed by the source limits assumed): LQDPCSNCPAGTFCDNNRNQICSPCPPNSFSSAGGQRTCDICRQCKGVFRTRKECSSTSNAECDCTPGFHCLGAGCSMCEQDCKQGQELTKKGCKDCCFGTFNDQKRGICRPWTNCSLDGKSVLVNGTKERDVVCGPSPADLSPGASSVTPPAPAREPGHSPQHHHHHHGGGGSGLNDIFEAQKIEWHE

B1: dBBDu183H V100cG / dBBDu072L (antibody, name in Kabat numbering, V domains shown)
VH: QVQLVESGGGLVQPGRSLRLSCAASGFTFSNAWMHWVRQAPGKGLEWVAQIKDKGNAYAAYYAPSVKGRFTISRDDSKNSIYLQMNSLKTEDTAVYYCHYVHYASASTGLPAFGVDAWGQGTTVTVSS
VL: DIVMTQSPLSLPVTPGEPASISCQASQELVHMNRNTYLHWYQQKPGQAPRLLIYKVSNRFPGVPDRFSGSGSGTDFTLKISRVEAEDVGVYYCAQGTSVPFTFGQGTKLEIK
fold change of affinity: 0 fold

B2: dBBDu183H V100iS / dBBDu072L (antibody, name in Kabat numbering, V domains shown)
VH: B1 VH with G109V, V115S
VL: B1 VL
fold change of affinity: 0 fold

B3: dBBDu183H A100fT / dBBDu072L (antibody, name in Kabat numbering, V domains shown)
VH: B1 VH with G109V, A112T
VL: B1 VL
fold change of affinity: 0 fold

B4: dBBDu183H V100iG / dBBDu072L (antibody, name in Kabat numbering, V domains shown)
VH: B1 VH with G109V, V115G
VL: B1 VL
fold change of affinity: 0 fold

B5: dBBDu183H G100hS / dBBDu072L (antibody, name in Kabat numbering, V domains shown)
VH: B1 VH with G109V, G114S
VL: B1 VL
fold change of affinity: 0 fold

B6: dBBDu183H V95N / dBBDu072L (antibody, name in Kabat numbering, V domains shown)
VH: B1 VH with V101N, G109V
VL: B1 VL
fold change of affinity: 0 fold

B7: dBBDu183H A102T / dBBDu072L (antibody, name in Kabat numbering, V domains shown)
VH: B1 VH with G109V, A117T
VL: B1 VL
fold change of affinity: 0 fold

B8: dBBDu183H V95S / dBBDu072L (antibody, name in Kabat numbering, V domains shown)
VH: B1 VH with V101S, G109V
VL: B1 VL
fold change of affinity: 0 fold

B9: dBBDu183H H93T / dBBDu072L (antibody, name in Kabat numbering, V domains shown)
VH: B1 VH with H99T, G109V
VL: B1 VL
fold change of affinity: 0 fold

B10: dBBDu183H S100aN / dBBDu072L (antibody, name in Kabat numbering, V domains shown)
VH: B1 VH with S107N, G109V
VL: B1 VL
fold change of affinity: 0 fold

B11: dBBDu183H A100fN / dBBDu072L (antibody, name in Kabat numbering, V domains shown)
VH: B1 VH with G109V, A112N
VL: B1 VL
fold change of affinity: 0 fold

B12: dBBDu183H H96S / dBBDu072L (antibody, name in Kabat numbering, V domains shown)
VH: B1 VH with H102S, G109V
VL: B1 VL
fold change of affinity: 0 fold

B13: dBBDu183H G100hQ / dBBDu072L (antibody, name in Kabat numbering, V domains shown)
VH: B1 VH with G109V, G114Q
VL: B1 VL
fold change of affinity: 0 fold

B14: dBBDu183H V100iQ / dBBDu072L (antibody, name in Kabat numbering, V domains shown)
VH: B1 VH with G109V, V115Q
VL: B1 VL
fold change of affinity: 0 fold

B15: dBBDu183H S99N / dBBDu072L (antibody, name in Kabat numbering, V domains shown)
VH: B1 VH with S105N, G109V
VL: B1 VL
fold change of affinity: 0 fold

B16: dBBDu183H F100gG / dBBDu072L (antibody, name in Kabat numbering, V domains shown)
VH: B1 VH with G109V, F113G
VL: B1 VL
fold change of affinity: 0 fold

B17: dBBDu183H A98Q / dBBDu072L (antibody, name in Kabat numbering, V domains shown)
VH: B1 VH with A104Q, G109V
VL: B1 VL
fold change of affinity: 0 fold

B18: dBBDu183H V95D / dBBDu072L (antibody, name in Kabat numbering, V domains shown)
VH: B1 VH with V101D, G109V
VL: B1 VL
fold change of affinity: 0 fold

B19: dBBDu183H H93D / dBBDu072L (antibody, name in Kabat numbering, V domains shown)
VH: B1 VH with H99D, G109V
VL: B1 VL
fold change of affinity: 0 fold

B20: dBBDu183H A98T / dBBDu072L (antibody, name in Kabat numbering, V domains shown)
VH: B1 VH with A104T, G109V
VL: B1 VL
fold change of affinity: 0 fold

B21: dBBDu183H S100aQ / dBBDu072L (antibody, name in Kabat numbering, V domains shown)
VH: B1 VH with S107Q, G109V
VL: B1 VL
fold change of affinity: 0 fold

B22: dBBDu183H A102N / dBBDu072L (antibody, name in Kabat numbering, V domains shown)
VH: B1 VH with G109V, A117N
VL: B1 VL
fold change of affinity: 0 fold

B23: dBBDu183H G100hN / dBBDu072L (antibody, name in Kabat numbering, V domains shown)
VH: B1 VH with G109V, G114N
VL: B1 VL
fold change of affinity: 0 fold

B24: dBBDu183H A100T / dBBDu072L (antibody, name in Kabat numbering, V domains shown)
VH: B1 VH with A106T, G109V
VL: B1 VL
fold change of affinity: 0 fold

B25: dBBDu183H V100iN / dBBDu072L (antibody, name in Kabat numbering, V domains shown)
VH: B1 VH with G109V, V115N
VL: B1 VL
fold change of affinity: 0 fold

B26: dBBDu183H V100cN / dBBDu072L (antibody, name in Kabat numbering, V domains shown)
VH: B1 VH with G109N
VL: B1 VL
fold change of affinity: 0 fold

B27: dBBDu183H L100dN / dBBDu072L (antibody, name in Kabat numbering, V domains shown)
VH: B1 VH with G109V, L110N
VL: B1 VL
fold change of affinity: 0 fold

B28: dBBDu183H H96Q / dBBDu072L (antibody, name in Kabat numbering, V domains shown)
VH: B1 VH with H102Q, G109V
VL: B1 VL
fold change of affinity: 0 fold

B29: dBBDu183H H93Q / dBBDu072L (antibody, name in Kabat numbering, V domains shown)
VH: B1 VH with H99Q, G109V
VL: B1 VL
fold change of affinity: 0 fold

B30: dBBDu183H Y97N / dBBDu072L (antibody, name in Kabat numbering, V domains shown)
VH: B1 VH with Y103N, G109V
VL: B1 VL
fold change of affinity: 0 fold

B31: dBBDu183H A102Q / dBBDu072L (antibody, name in Kabat numbering, V domains shown)
VH: B1 VH with G109V, A117Q
VL: B1 VL
fold change of affinity: 0 fold

B32: dBBDu183H V95T / dBBDu072L (antibody, name in Kabat numbering, V domains shown)
VH: B1 VH with V101T, G109V
VL: B1 VL
fold change of affinity: 0 fold

B33: dBBDu183H A100S / dBBDu072L (antibody, name in Kabat numbering, V domains shown)
VH: B1 VH with A106S, G109V
VL: B1 VL
fold change of affinity: 0 fold

B34: dBBDu183H D101G / dBBDu072L (antibody, name in Kabat numbering, V domains shown)
VH: B1 VH with G109V, D116G
VL: B1 VL
fold change of affinity: 0 fold

B35: dBBDu183H G100hT / dBBDu072L (antibody, name in Kabat numbering, V domains shown)
VH: B1 VH with G109V, G114T
VL: B1 VL
fold change of affinity: 0 fold

B36: dBBDu183H Y97T / dBBDu072L (antibody, name in Kabat numbering, V domains shown)
VH: B1 VH with Y103T, G109V
VL: B1 VL
fold change of affinity: 0 fold

B37: dBBDu183H Y97S / dBBDu072L (antibody, name in Kabat numbering, V domains shown)
VH: B1 VH with Y103S, G109V
VL: B1 VL
fold change of affinity: 0 fold

B38: dBBDu183H L100dG / dBBDu072L (antibody, name in Kabat numbering, V domains shown)
VH: B1 VH with G109V, L110G
VL: B1 VL
fold change of affinity: 0 fold

B39: dBBDu183H A100fQ / dBBDu072L (antibody, name in Kabat numbering, V domains shown)
VH: B1 VH with G109V, A112Q
VL: B1 VL
fold change of affinity: 0 fold

B40: dBBDu183H F100gN / dBBDu072L (antibody, name in Kabat numbering, V domains shown)
VH: B1 VH with G109V, F113N
VL: B1 VL
fold change of affinity: 0 fold

B41: dBBDu183H L100dT / dBBDu072L (antibody, name in Kabat numbering, V domains shown)
VH: B1 VH with G109V, L110T
VL: B1 VL
fold change of affinity: 0 fold

B42: dBBDu183H A98N / dBBDu072L (antibody, name in Kabat numbering, V domains shown)
VH: B1 VH with A104N, G109V
VL: B1 VL
fold change of affinity: 0 fold

B43: dBBDu183H H93S / dBBDu072L (antibody, name in Kabat numbering, V domains shown)
VH: B1 VH with H99S, G109V
VL: B1 VL
fold change of affinity: 0 fold

B44: dBBDu183H V95Q / dBBDu072L (antibody, name in Kabat numbering, V domains shown)
VH: B1 VH with V101Q, G109V
VL: B1 VL
fold change of affinity: 0 fold

B45: dBBDu183H Y97Q / dBBDu072L (antibody, name in Kabat numbering, V domains shown)
VH: B1 VH with Y103Q, G109V
VL: B1 VL
fold change of affinity: 0 fold

B46: dBBDu183H S100aT / dBBDu072L (antibody, name in Kabat numbering, V domains shown)
VH: B1 VH with S107T, G109V
VL: B1 VL
fold change of affinity: 0 fold

B47: dBBDu183H H96N / dBBDu072L (antibody, name in Kabat numbering, V domains shown)
VH: B1 VH with H102N, G109V
VL: B1 VL
fold change of affinity: 0 fold
